Results on 50 sequences are retold here after the domain aggregation screens of Martell et al. (2025).

This series in a line: soluble fraction after stress (log2 fold change); higher = more stays soluble; pooled small domains, quantitative proteomics. Particulars: stress: 75 degC.
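Further: 20 min heating vs room temperature control held 20 min.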

As for “HMPLQYRLTVQPTPTNARVRLVNSAFTYRPGVALPPGSYIVEVSSSGYGAKRQAVQIADGDVTVPVELEKI”, the “soluble fraction (log2)” value is -0.582.
With “HMPLYKYYTSYQIEPGDTLTSIAQKYTINSDVSVQDYIDEVKKNNNLVSDKINSGSYLVVSYYSNEY” the figure was -1.36.
With “HMPNIQLARNLKYLRLAYGLTQDDLGAFLNISRQAYSNYENLKRSPDLDSLIRLASLYHLSLDDLVSR” the figure was -3.31; with “HMPNTLAGIERYLGSGMVKGIGPVYASRLVSAFGTAVFDVIEQTPERLREIDGIGEKRTRKITSGWADQ”, -0.213; with “HMPNYIDAISALLTLKGVGDRKHASTMANILNLQYNSAKQKLDGKRGITLDEVKKVFQYFNEPF”, -1.44.
In the case of “HMPPAPGHDLTEREREVLRLLVEGLSNQEISDRLVISQSTVKNHVSSVLSKLDAANRAEAVALALKNQL”, the “soluble fraction (log2)” value was determined as 0.0595.
As for “HMPPELSDEVMEEAMSYLKNQYLNHGVKLEDYPALNKLFVDEAFRSEVIRKTQSNYKISYQSAMASLD”, the figure is 0.355; as for “HMPPENVSVRREQIAEDKKTVYNVWVTKGNKTVLYSKVVYAWGGVYFFRDLNTSISENMYKQADAGLVN”, 0.00373; as for “HMPPGQIVNEALQRAGNSTPTGTAISAQDDIKLYTSALAELATQGDTSSASVAKLREALQTAQVAFYNAV”, 0.201.
With “HMPPITIVPNDNGVPIIRSQTPEISTAVNVELKAAGINTHTIDGTSIRVPKAQAQVAQQIVSRVNTRFT” the figure was 0.151; with “HMPPNHADLKSSGLKATLPRLKILEIFQNSQVRHLSAEDVYKLLLAENLDVGLATVYRVLTQFEQAGL”, -0.522.
As for “HMPPNRDDEHLQALRDYYAANRRIPSLQRVASLLGFSSRSAAVKLMGRLADEGFIERTADDDAWITGKRFF”, the figure is -1.34; as for “HMPPNVLSEREQEVLQLAADGMSNKEMGSELYIAPTTVRDHMQSIMRKLQVNSRTAAAVAGLKLGLLD”, -0.452.
Take “HMPPPTLVESAYNHLKADIISSYLKPDEKINLKDLSQRYQVSETPIKQALNRLISEGLIISVPRKGMWVH”: the “soluble fraction (log2)” value is 0.0697.
“HMPPPVERAIRKLGHDLSLARRRRRISQDSMAQRMGASVSTVRRIEKGDPRIPIHFIARAMMILGDLKAL”: the “soluble fraction (log2)” value was found to be 0.0447.
As for “HMPQFDRQAFGQRLRLLRDYREMTQQQVANFLNVDRSTYSYYENGKTEPSITVLMRMAELFSVTLDSLLNM”, the figure is -3.92; as for “HMPQIDLYPFEVRIEQDNNAAEYAVRFLDVPNIIGSGASIDEAIVEARGNLKEYLDYLIDTNRDIPLPS”, -0.339; as for “HMPQISQDDLMEAGLIVGKEAKQRRIKLGEILGIGYVNAKQLPKRLQLFQVAKSDFEQAVQQIDG”, -0.218.
As for “HMPQKSDLTMEEYNKLGLAGGSGSRKLREQVGIRLSVGYGNSKQFYNRLHTFGISLDELKTAVEEVKNG”, the figure is 0.226; as for “HMPQNVSVPDVTNMTQAEAESKLKEKNLAVGNIIPELSTTVEKDKVTRTNPESGSNVRKNSKVDIYVSQG”, 0.154.
As for “HMPQPDVIEVRQGIVTGMRPDRRTGWLRDEEDAAGEPKSFSIDVITPKGRTPGKGAVVTYTLTNGKITEVK”, the figure is -0.047.
Consider “HMPRELKVRDVSHQHAGHAGWREGGETHFEVDMKADVFAGTSRVAAHRMVNKVLANELASRVHALQLNLS”, for which the “soluble fraction (log2)” value turned out to be 0.0164.
On to “HMPRENLAYTLIMDGIVQHKNLPRASVTEAWLKQELQKAGINDFRQVLIAGIDSKGQLYFQPKQK”, for which the “soluble fraction (log2)” value was not below 1.04.
With “HMPRPLVAPMPGLIVRVTAVVGDSVDAGQGLVVMEAMKMENELRTTTAGVVKTVHVQPGVAVEKGALLIEF” the figure was -0.827; with “HMPRTEILMVDEEMEGERLDAFVAEQLDELSRSLVKTLIENGEIRVDGKQQKPSYRLKAGEEIIVEIPA”, 0.439.
As for “HMPSDTNLIGKTGIAYTTLRPGGTALIDDRKVDVVADSEYIEKDKKIKVIRVEGIKVVVTAVK”, the figure is 0.164; as for “HMPSGRIRWFDAKKGYGFIAGDDGKDVFLPQTALPQGVRNPRKGAKVEYSVIEGNRGQVAMGVTMV”, -0.331; as for “HMPSHALFWTLLKEVPGYDPHYKDVIKEGIVHEHSGGRTTSLSEMYTKYPREYSLMIEAMKG”, -0.475.
As for “HMPSKTFYNLSQEKQQKIIDASEKEFSNNLYQDVSLNQIIKNSNISRGSFYMYFTDKEDLYFYLLNEY”, the figure is -0.731; as for “HMPSLGADIRALRKSRKMTLVALADALGRSVGWLSQVERDKSHATIADLGRMAEVLDVSISSFL”, -0.273; as for “HMPSLSAILHDARVAAGLSMRQASAASGLSIGFISMLEQGKVQDISLQRLGRLVTAYDLEPLDVIEAAG”, -1.83.
Take “HMPSSAYGPYKNVFLSNSELTKLKNELPTSWEHYINRLSEYMRSTGRQYQSHAATILRWAATDRNS”: the “soluble fraction (log2)” value was -0.488.
As for “HMPSSFLVKVTADALNIRSGPGVANRITGTIKDKGTYTIVDTKDDWGKLKSGVGWIHLGYTKRLD”, the “soluble fraction (log2)” value is -0.857.
As for “HMPSSQQVMRRLATVGPDKTLEELQRQHDAHLRKYGEFNDFRGERQQMRQEMERIKEAKQGTGPYAHLMG”, the figure is 0.025; as for “HMPTAGYMTVTPDRVKEGQQFLATLRPPYVLKADGLAAGKGVLILPELEEAQRELEEMLGGFLGELSVNR”, 0.136; as for “HMPTERLSMRRIRELLRLRFEVGLSTRLIATALGISKGAVGDYLQRAQVAGLGWPLPENLNDAALERRLFP”, -1.38.
With “HMPTGRVVIPLNRLTASDVARILDEAYGRDHNFEVVKPSRLAKGIIVIGPKSEIDGIKELLAH”, the “soluble fraction (log2)” value is -0.829.
As for “HMPTLLGYKHILSAWNPDTNTVFRTSYGYDGEYGSREEAMQALIKMIQEGGKATPRGIEESEVPIY”, the figure is -0.238; as for “HMPTLSKVGSQGEEVRQIQTKLKNWGYLNDRVDGIYGPKTRDAVIWFQKKNGLVADGIAGPATLKAMGIFT”, -0.142.
With “HMPTMVAQINEIVQAKLPGSGLKDYTIRLVESQRDGVVVWVNGTRYLGVDEVAEPQVQALLKEAVAEWERS” the figure was -0.462; with “HMPTQGELAILRVLWEQGPSTVRAVWEKLNSQSGTGYTTALKLMQIMAQKGLVSRDESQKTHVYRA”, -1.54.
With “HMPTTRPEAEAHYETHQRYHDLQIDVEGREAFKVATGSLTLVQEFDEKDDYDLSIPTPRSPAILLTT” the figure was -0.0329; with “HMPVFYVTGNRVNFRAGPSTGDRVIGSLSQGAAVEVLGPTDDAWINIRDSDGRVGYMSAQFLSQ”, 0.355.
On to “HMPVLDETVPAALDGERIDRVVALLADVSRNRAGIAIAAGSVRLDGAVVTQRSRKVRADEELVVDGLER”, for which the “soluble fraction (log2)” value came out at 0.107.
With “HMPVNEEFKRLIDKIKYEFSINQAQISERLGVKSTYLSDMINGRVPYNESMQKKIHEVFHIG” the figure was -0.424; with “HMPVNGEFIERIKVMVLENKAKGKKERLTKTRMHQLLQEEGYKGSYSAFTHQVRIIEEELGVNQKEAH”, -0.48; with “HMPVSRMRARHEALARGVMGIHAGGFSAVYGYRKVWHGLIGKGWDPGEVGRDQVMNIMRGLGMQGVRR”, -0.132.
As for “HMPVSVAEQKQILAEALQERGHATFRELIENADNRMIVVGRFLALLELYRDGTVRFEQERALGELTIHWEE”, the figure is -2.07.
With “HMPYIVNHIHLKSEDPKITADWFVKAFNFEIVSDVVRHFGDRFIVTKAEGGMTINISGVRDGEEL” the figure was 0.141; with “HMPYNNLADAPASWKKLDDTPLTLGQVNWIAKIYDALVAKGMEKGAAAGTAISRFKKSFKVADGKWVQV”, -0.478.
